Assay results reported in US20150196666A1.
Each block holds one molecule with its values, some of them ahead of it.

Columns and labels:
[1] = biological target: CD74 (invariant chain, Ii) (human) (UniProt P04233); assay: cell binding assay on antigen-positive cells
[2] = biological target: CD74 (invariant chain, Ii) (human) (UniProt P04233); assay: flow cytometry, permeabilized NCI-N87 cells
[3] = biological target: CD74 (invariant chain, Ii) (human) (UniProt P04233); assay: flow cytometry, membrane-only CD74, A-375 cells
[4] = biological target: CD74 (invariant chain, Ii) (human) (UniProt P04233); assay: flow cytometry, membrane-only CD74, HuH-7 cells
[5] = biological target: CD74 (invariant chain, Ii) (human) (UniProt P04233); assay: flow cytometry, permeabilized Hep-G2 cells; background in parentheses
[6] = biological target: CD74 (invariant chain, Ii) (human) (UniProt P04233); assay: flow cytometry, membrane-only CD74, Hs746T cells
[7] = biological target: CD74 (invariant chain, Ii) (human) (UniProt P04233); assay: flow cytometry, permeabilized Capan-1 cells; background in parentheses
[8] = biological target: CD74 (invariant chain, Ii) (human) (UniProt P04233); assay: flow cytometry, permeabilized Raji cells
[9] = biological target: CD74 (invariant chain, Ii) (human) (UniProt P04233); assay: flow cytometry, membrane-only CD74, NCI-N87 cells
[10] = biological target: CD74 (invariant chain, Ii) (human) (UniProt P04233); assay: flow cytometry, membrane-only CD74, Hep-G2 cells
[11] = biological target: CD74 (invariant chain, Ii) (human) (UniProt P04233); assay: flow cytometry, membrane-only CD74, Capan-1 cells; background (GAH-FITC only) in parentheses
[12] = biological target: CD74 (invariant chain, Ii) (human) (UniProt P04233); assay: flow cytometry, permeabilized Raji cells; background in parentheses
[13] = biological target: CD74 (invariant chain, Ii) (human) (UniProt P04233); assay: flow cytometry, membrane-only CD74, Raji cells
[14] = biological target: CD74 (invariant chain, Ii) (human) (UniProt P04233); assay: flow cytometry, membrane-only CD74, Hs746T cells; background (GAH-FITC only) in parentheses
[15] = biological target: CD74 (invariant chain, Ii) (human) (UniProt P04233); assay: flow cytometry, permeabilized HuH-7 cells; background in parentheses
[16] = biological target: CD74 (invariant chain, Ii) (human) (UniProt P04233); assay: flow cytometry, permeabilized Hs746T cells; background in parentheses
[17] = biological target: CD74 (invariant chain, Ii) (human) (UniProt P04233); assay: flow cytometry, membrane-only CD74, A-375 cells; background (GAH-FITC only) in parentheses
[18] = biological target: CD74 (invariant chain, Ii) (human) (UniProt P04233); assay: flow cytometry, membrane-only CD74, Raji cells; background (GAH-FITC only) in parentheses
[19] = biological target: CD74 (invariant chain, Ii) (human) (UniProt P04233); assay: flow cytometry, permeabilized A-375 cells
[20] = biological target: CD74 (invariant chain, Ii) (human) (UniProt P04233); assay: flow cytometry, permeabilized A-375 cells; background in parentheses
[21] = biological target: CD74 (invariant chain, Ii) (human) (UniProt P04233); assay: flow cytometry, membrane-only CD74, Capan-1 cells
[22] = biological target: CD74 (invariant chain, Ii) (human) (UniProt P04233); assay: flow cytometry, permeabilized Hep-G2 cells
[23] = biological target: CD74 (invariant chain, Ii) (human) (UniProt P04233); assay: flow cytometry, permeabilized HuH-7 cells
[24] = biological target: CD74 (invariant chain, Ii) (human) (UniProt P04233); assay: flow cytometry, membrane-only CD74, Hep-G2 cells; background (GAH-FITC only) in parentheses
[25] = biological target: CD74 (invariant chain, Ii) (human) (UniProt P04233); assay: flow cytometry, permeabilized NCI-N87 cells; background in parentheses
[26] = biological target: CD74 (invariant chain, Ii) (human) (UniProt P04233); assay: flow cytometry, membrane-only CD74, NCI-N87 cells; background (GAH-FITC only) in parentheses
[27] = biological target: CD74 (invariant chain, Ii) (human) (UniProt P04233); assay: flow cytometry, permeabilized Capan-1 cells
[28] = biological target: CD74 (invariant chain, Ii) (human) (UniProt P04233); assay: flow cytometry, membrane-only CD74, HuH-7 cells; background (GAH-FITC only) in parentheses
[29] = biological target: CD74 (invariant chain, Ii) (human) (UniProt P04233); assay: flow cytometry, permeabilized Hs746T cells
[30] = biological target: human trophoblast cell-surface antigen (TROP-2) (human) (UniProt P09758); assay: flow cytometry, surface binding on Capan-1 cells
human trophoblast cell-surface antigen (TROP-2) (human), sequence (P09758 27-323): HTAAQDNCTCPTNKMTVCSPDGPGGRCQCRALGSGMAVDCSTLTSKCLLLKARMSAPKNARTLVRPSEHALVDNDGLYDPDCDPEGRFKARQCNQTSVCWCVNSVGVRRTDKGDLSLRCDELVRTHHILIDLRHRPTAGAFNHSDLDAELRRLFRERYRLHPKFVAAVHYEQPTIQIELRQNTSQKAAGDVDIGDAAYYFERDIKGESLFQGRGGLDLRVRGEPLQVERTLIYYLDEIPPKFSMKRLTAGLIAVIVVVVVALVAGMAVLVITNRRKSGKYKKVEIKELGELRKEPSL

[31] = biological target: human trophoblast cell-surface antigen (TROP-2) (human) (UniProt P09758); assay: flow cytometry, surface, NCI-N87 cells
[32] = biological target: CD20 (human) (UniProt P11836); assay: flow cytometry, unconjugated antibody + FITC goat anti-human IgG, WSU-FSCCL cells; background in parentheses
CD20 (human), sequence (P11836 whole entry): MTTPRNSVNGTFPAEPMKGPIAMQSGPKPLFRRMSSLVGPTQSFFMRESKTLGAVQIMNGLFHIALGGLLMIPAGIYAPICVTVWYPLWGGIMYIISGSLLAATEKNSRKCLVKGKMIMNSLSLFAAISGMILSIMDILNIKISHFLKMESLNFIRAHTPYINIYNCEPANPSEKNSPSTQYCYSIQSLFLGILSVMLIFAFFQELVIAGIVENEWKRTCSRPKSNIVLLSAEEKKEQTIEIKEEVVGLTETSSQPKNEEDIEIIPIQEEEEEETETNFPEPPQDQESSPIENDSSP

[33] = biological target: CD20 (human) (UniProt P11836); assay: flow cytometry, unconjugated antibody + FITC goat anti-human IgG, Ramos cells; background in parentheses
[34] = biological target: CD20 (human) (UniProt P11836); assay: flow cytometry, unconjugated antibody + FITC goat anti-human IgG, Raji cells; background in parentheses
[35] = biological target: CD20 (human) (UniProt P11836); assay: flow cytometry, unconjugated antibody + FITC goat anti-human IgG, RS4;11 cells; background in parentheses
[36] = biological target: CD20 (human) (UniProt P11836); assay: flow cytometry, unconjugated antibody + FITC goat anti-human IgG, 697 cells; background in parentheses
[37] = biological target: CD20 (human) (UniProt P11836); assay: flow cytometry, unconjugated antibody + FITC goat anti-human IgG, Daudi cells; background in parentheses
[38] = biological target: CD20 (human) (UniProt P11836); assay: flow cytometry, unconjugated antibody + FITC goat anti-human IgG, REH cells; background in parentheses
[39] = biological target: CD20 (human) (UniProt P11836); assay: flow cytometry, unconjugated antibody + FITC goat anti-human IgG, MN-60 cells; background in parentheses
[40] = biological target: CD20 (human) (UniProt P11836); assay: flow cytometry, unconjugated antibody + FITC goat anti-human IgG, Jeko-1 cells; background in parentheses
[41] = biological target: human trophoblast cell-surface antigen (TROP-2) (human) (UniProt P09758); assay: cell binding assay on TROP-2-expressing cells
[42] = biological target: CD22 (human) (UniProt P20273); assay: flow cytometry, unconjugated antibody + FITC goat anti-human IgG, WSU-FSCCL cells; background in parentheses
[43] = biological target: CD22 (human) (UniProt P20273); assay: flow cytometry, unconjugated antibody + FITC goat anti-human IgG, Ramos cells; background in parentheses
[44] = biological target: CD22 (human) (UniProt P20273); assay: flow cytometry, unconjugated antibody + FITC goat anti-human IgG, Raji cells; background in parentheses
[45] = biological target: CD22 (human) (UniProt P20273); assay: flow cytometry, unconjugated antibody + FITC goat anti-human IgG, RS4;11 cells; background in parentheses
[46] = biological target: CD22 (human) (UniProt P20273); assay: flow cytometry, unconjugated antibody + FITC goat anti-human IgG, 697 cells; background in parentheses
[47] = biological target: CD22 (human) (UniProt P20273); assay: flow cytometry, unconjugated antibody + FITC goat anti-human IgG, Daudi cells; background in parentheses
[48] = biological target: CD22 (human) (UniProt P20273); assay: flow cytometry, unconjugated antibody + FITC goat anti-human IgG, REH cells; background in parentheses
[49] = biological target: CD22 (human) (UniProt P20273); assay: flow cytometry, unconjugated antibody + FITC goat anti-human IgG, MN-60 cells; background in parentheses
[50] = biological target: CD22 (human) (UniProt P20273); assay: flow cytometry, unconjugated antibody + FITC goat anti-human IgG, Jeko-1 cells; background in parentheses
[51] = biological target: CEACAM6 (human) (UniProt P40199); assay: flow cytometry, surface, NCI-N87 cells
CEACAM6 (human), sequence (P40199 35-320): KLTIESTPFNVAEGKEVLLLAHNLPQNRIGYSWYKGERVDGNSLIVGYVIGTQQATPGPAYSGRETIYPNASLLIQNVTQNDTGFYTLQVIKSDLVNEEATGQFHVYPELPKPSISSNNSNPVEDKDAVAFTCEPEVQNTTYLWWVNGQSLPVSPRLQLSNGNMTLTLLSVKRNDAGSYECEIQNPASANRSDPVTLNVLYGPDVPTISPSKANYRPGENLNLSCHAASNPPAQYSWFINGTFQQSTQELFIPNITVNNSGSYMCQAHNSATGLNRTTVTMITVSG

[52] = biological target: CEACAM6 (human) (UniProt P40199); assay: flow cytometry, Hep-G2 cells
[53] = biological target: CEACAM6 (human) (UniProt P40199); assay: flow cytometry, surface, HuH-7 cells

CD74 (invariant chain, Ii) (human), sequence (P04233 whole entry, change not shown): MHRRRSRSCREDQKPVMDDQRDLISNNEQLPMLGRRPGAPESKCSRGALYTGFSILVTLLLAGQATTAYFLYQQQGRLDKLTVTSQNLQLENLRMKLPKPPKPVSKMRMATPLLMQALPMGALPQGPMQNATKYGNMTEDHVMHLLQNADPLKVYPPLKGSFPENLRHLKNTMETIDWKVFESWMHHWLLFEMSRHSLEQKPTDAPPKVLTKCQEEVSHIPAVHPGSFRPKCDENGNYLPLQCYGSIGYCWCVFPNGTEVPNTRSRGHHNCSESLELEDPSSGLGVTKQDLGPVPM

- MFI (surface) [30]: 237
- MFI (surface) [31]: 795
Molecule: humanized RS7 IgG (hRS7), anti-TROP-2 (anti-EGP-1) humanized antibody

- median fluorescence [32]: 97.4
- median fluorescence [33]: 620
- median fluorescence [34]: 422
- median fluorescence [35]: 3.7
- median fluorescence [36]: 6.9
- median fluorescence [37]: 815
- median fluorescence [38]: 12.3
- median fluorescence [39]: 21.5
- median fluorescence [40]: 605
Molecule: veltuzumab (hA20), humanized anti-CD20 IgG1 (antibody)

- Kd [41]: 1200 pM
Molecule: hRS7-CL2A-SN-38 (hRS7 IgG conjugated to SN-38 through the CL2A linker) (antibody)

- MFI (surface) [51]: 1120
- MFI [52]: 175
- MFI (surface) [53]: 81
B1: hMN-15, humanized anti-CEACAM6 IgG1 (antibody, from a related filing, V domains shown)
VH: QVQLVESGGGVVQPGRSLRLSCSSSGFALTDYYMSWVRQAPGKGLEWLGFIANKANGHTTDYSPSVKGRFTISRDNSKNTLFLQMDSLRPEDTGVYFCARDMGIRWNFDVWGQGTPVTVSS
VL: DIQLTQSPSSLSASVGDRVTMTCSASSRVSYIHWYQQKPGKAPKRWIYGTSTLASGVPARFSGSGSGTDFTFTISSLQPEDIATYYCQQWSYNPPTFGQGTKVEIKR

The next lines start with the molecule.

Molecule: milatuzumab (hLL1), humanized anti-CD74 IgG1 (antibody)
- Kd [1]: 770 pM
- MFI Ratio hLL1:bkgd (surface and cytoplasmic) [2]: 36.7
- MFI Ratio hLL1:bkgd (surface) [3]: 5.3
- MFI Ratio hLL1:bkgd (surface) [4]: 1.6
- MFI (surface and cytoplasmic) [5]: 156
- MFI Ratio hLL1:bkgd (surface) [6]: 2.1
- MFI (surface and cytoplasmic) [7]: 248
- MFI Ratio hLL1:bkgd (surface and cytoplasmic) [8]: 28.6
- MFI Ratio hLL1:bkgd (surface) [9]: 1.3
- MFI Ratio hLL1:bkgd (surface) [10]: 1.5
- MFI (surface) [11]: 22
- MFI (surface and cytoplasmic) [12]: 143
- MFI Ratio hLL1:bkgd (surface) [13]: 19.6
- MFI (surface) [14]: 17
- MFI (surface and cytoplasmic) [15]: 114
- MFI (surface and cytoplasmic) [16]: 144
- MFI (surface) [17]: 16
- MFI (surface) [18]: 59
- MFI Ratio hLL1:bkgd (surface and cytoplasmic) [19]: 30.8
- MFI (surface and cytoplasmic) [20]: 185
- MFI Ratio hLL1:bkgd (surface) [21]: 1.8
- MFI Ratio hLL1:bkgd (surface and cytoplasmic) [22]: 31.2
- MFI Ratio hLL1:bkgd (surface and cytoplasmic) [23]: 28.5
- MFI (surface) [24]: 9
- MFI (surface and cytoplasmic) [25]: 220
- MFI (surface) [26]: 5
- MFI Ratio hLL1:bkgd (surface and cytoplasmic) [27]: 49.6
- MFI (surface) [28]: 8
- MFI Ratio hLL1:bkgd (surface and cytoplasmic) [29]: 28.8

Molecule: milatuzumab-CL2A-SN-38 (antibody)
- Kd [1]: 590 pM

Molecule: epratuzumab (hLL2), humanized anti-CD22 IgG1 (antibody)
- median fluorescence [42]: 7.7
- median fluorescence [43]: 40.8
- median fluorescence [44]: 45.9
- median fluorescence [45]: 23.3
- median fluorescence [46]: 16
- median fluorescence [47]: 145
- median fluorescence [48]: 22.9
- median fluorescence [49]: 10.3
- median fluorescence [50]: 11.2

Molecule: hRS7-CL2-SN-38 (hRS7 IgG conjugated to SN-38 through the CL2 linker) (antibody)
- Kd [41]: 1200 pM

Molecule: milatuzumab-CL2E-SN-38 (antibody)
- Kd [1]: 800 pM
